Reference: article PMC6335422 (Nature Communications, 2019)
Where no end group is shown, it is not given here.

T1: Erh1 (Erh1wt) (Schizosaccharomyces pombe, UniProt G2TRN4)
T1 construct: A region of Erh1 (residues 1–104) was amplified by PCR; made in house; host or cells: Escherichia coli BL21 (Gold)
T1 sequence (G2TRN4 1-104): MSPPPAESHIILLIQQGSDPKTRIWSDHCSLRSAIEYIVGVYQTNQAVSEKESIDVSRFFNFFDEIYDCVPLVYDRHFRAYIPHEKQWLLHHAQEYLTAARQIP

B1: mutant Mmi^W112A protein: full-length Mmi1 carrying W112A, expressed in S. pombe (protein)
chain: MSNTNFSTSRSSKSIPELPNLEALRSLWPPPSLNESGDTRSVWTTHTGEPVASSVLSTSGSNNFSSPLKRPAPESHDAPIGRRLMVDDPRLIKHGKYDFSRHCTDYGHSYEAPYFRSLRRESMLYHTSGSYPESQPPYSSYSTDAPHYYHAGSESSAYYDSRSRLHGIQPPPKRRTLSPPPRRLADPVVVGSSRYVEEEVYRRPPYTLASEVPSSASAYQAGYSSYPVRSSPQLSHEDTRHGIASSGSTRYPFVPANTRASHSPSLLEPYAHSLPSSVAPVGAYPEKSSYLLSNSSNDSASRKEKPKARASTPPPLNFSRASEHRNEKGERISMINPRVVLDENGISHRSRYFIMLCDNETAIAHAKKTSIWAVKKDSSKRISDAYKKASVYFIFVAQQTYNALGYAQVVSDLNSTELPFWSDSSHAGGVRIKWIKTCNLFSAEISEIVSHMDHGSEARDGMEMMYDEGSRLCTLINYAIMKRIGRDR
modifications: left off: FLAG, end not stated, kept
notes: full-length Mmi1 carrying W112A, expressed in S. pombe

Assays:
Erh1 = assay: GST pull-down of Erh1 with GST-tagged Mmi1 fragments, Coomassie; assay type: binding, S. pombe; details: GST-Mmi1 fusion incubated with Erh1, glutathione-agarose, SDS-PAGE
Excerpt: Fig. 1 Mmi1 interacts with Erh1 in a 2:2 stoichiometry. a Shown is a schematic representation of the domain architecture of Mmi1. The disorder score from DISOPRED3 Server[62] and the conservation score are shown below. The conservation score is generated by a Protein Residue Conservation Prediction Server[63] from the sequence alignment of Mmi1 orthologues from S. pombe, S. cryophilus, S. octosporus, and S. japonicus. b–d Interactions of GST tagged Mmi1 peptides (GST-Mmi1) with Erh1 visualized by Coomassie blue staining. The indicated GST-Mmi1 fusion proteins or GST alone were incubated with Erh1. The complexes were collected with glutathione-agarose resin and bound proteins were eluted and then subjected to SDS-PAGE. GST or GST-Mmi1 fusion proteins without Erh1 are shown as a negative control. Source data are provided as a Source Data file. e The raw ITC titration data of Erh1 with SUMO tagged Mmi1^95–122 and its fitting curve are shown. KD dissociation constant, DP differential power, N binding stoichiometry, ΔH binding enthalpy. f ITC fitting curves of Erh1 using SUMO tagged Mmi1^95–122 (magenta), Mmi1^106–122 (blue) and Mmi1^95–111 (green) are shown. g Size-exclusion analysis of Erh1 (magenta) and Erh1-Mmi1^95–122 (blue). Marker sizes are 62.9 KDa (Albumin), 46.7 KDa (Ovalbumin), 20.3 KDa (Chymotrypsinogen), 14.6 KDa (Ribonuclease A). Also shown are theoretical monomer sizes (kDa) of Erh1 protein and Mmi1^95–122 peptide TEXT PRINTED IN THE PICTURE: (e) Mmi1^95–122 - Erh1: KD (μM) 0.83±0.19; N (sites) 0.90±0.01; ΔH (kJ per mol) −106±3.02 | (f) Mmi1^95–122: Erh1 KD (μM): 0.83±0.19 | (f) Mmi1^106–122: Erh1 KD (μM): 9.94±1.19 | (f) Mmi1^95–111: Erh1 KD (μM): no binding | (g) Erh1: 13.2 kDa | (g) Mmi1^95–122: 3.5 kDa
A region of Erh1 (residues 1–104) was amplified by PCR from the S. pombe genome and cloned into a modified pET28a (Novagen) vector without a thrombin protease cleavage site (p28a). GST-Mmi1^YTH was sub-cloned from a Mmi1^YTH-p28a construct to a modified PGex-4T1 vector with a TEV protease cleavage site (Tev4T1). […]

Erh1 E85A = molecular target: T2, Erh1 E85A (Schizosaccharomyces pombe, UniProt G2TRN4, E85A); assay: ITC, Mmi1 peptide titrated into Erh1 E85A; assay type: binding, S. pombe; details: 293 K, pH 7.5
T2 construct: A region of Erh1 (residues 1–104) was amplified by PCR; made in house; host or cells: Escherichia coli BL21 (Gold)
T2 sequence (G2TRN4 whole entry E85A, the tested form may be a part): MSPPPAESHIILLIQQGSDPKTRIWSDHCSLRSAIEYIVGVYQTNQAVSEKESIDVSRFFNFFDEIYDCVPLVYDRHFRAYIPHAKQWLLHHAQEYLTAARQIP
Procedure: (§1) The titration protocol consisted of a single initial injection of 1 µl, followed by 19 injections of 2 µl SUMO-tagged Mmi1 peptides into the sample cell containing Erh1 protein. Thermodynamic data were analyzed with a single-site binding model using MicroCal PEAQ-ITC Analysis Software provided by the manufacturer.

Erh1 R23A = molecular target: T3, Erh1 R23A (Schizosaccharomyces pombe, UniProt G2TRN4, R23A); assay: ITC, Mmi1 peptide titrated into Erh1 R23A; assay type: binding, S. pombe
T3 construct: A region of Erh1 (residues 1–104) was amplified by PCR; made in house; host or cells: Escherichia coli BL21 (Gold)
T3 sequence (G2TRN4 whole entry R23A, the tested form may be a part): as the sequence (G2TRN4 whole entry E85A, the tested form may be a part) above, with R23A, A85E counted along it
Procedure: as §1

[1] = assay type: physicochemical; details: pH 7.5
Erh1 D27A = molecular target: T4, Erh1 D27A (Schizosaccharomyces pombe, UniProt G2TRN4, D27A); assay: ITC, Mmi1 peptide titrated into Erh1 D27A; assay type: binding, S. pombe
T4 construct: A region of Erh1 (residues 1–104) was amplified by PCR; made in house; host or cells: Escherichia coli BL21 (Gold)
T4 sequence (G2TRN4 whole entry D27A, the tested form may be a part): as the sequence (G2TRN4 whole entry E85A, the tested form may be a part) above, with D27A, A85E counted along it
Procedure: as §1

Erh1 (Erh1wt) = molecular target: T1, Erh1 (Erh1wt); assay: Isothermal titration calorimetry (ITC), SUMO-tagged Mmi1 peptides titrated into wild-type Erh1; assay type: binding, S. pombe; details: Erh1wt, ITC, 293 K, 20 mM Tris-HCl pH 7.5, 150 mM NaCl, SUMO-tagged Mmi1 peptide, single-site model
Procedure: as §1

Erh1 D68A = molecular target: T5, Erh1 D68A (Schizosaccharomyces pombe, UniProt G2TRN4, D68A); assay: ITC, Mmi1 peptide titrated into Erh1 D68A; assay type: binding, S. pombe
T5 construct: A region of Erh1 (residues 1–104) was amplified by PCR; made in house; host or cells: Escherichia coli BL21 (Gold)
T5 sequence (G2TRN4 whole entry D68A, the tested form may be a part): as the sequence (G2TRN4 whole entry E85A, the tested form may be a part) above, with D68A, A85E counted along it
Procedure: as §1

Erh1-Mmi1 interaction = assay: Co-immunoprecipitation of Erh1-GFP and FLAG-Mmi1 from yeast cells; assay type: cell-based, S. pombe; details: FLAG-Mmi1 WT replaced with mutant; Erh1-GFP; YEA medium, 32 °C
Procedure: Cells were grown to mid-log phase in rich YEA medium at 32 °C, harvested, and flash-frozen in liquid nitrogen prior to extract preparations. Extracts prepared from yeast cells expressing epitope tagged proteins under the control of native gene promoters were used for immunoprecipitations and Western blot analyses as described. Total protein extracts for western blotting analyses were prepared by trichloroacetic acid (TCA) precipitation. Briefly, cells were lysed using glass beads in 20% TCA buffer. Next, lysates were diluted using 5% TCA buffer and total protein pellets were concentrated by centrifugation at 21,000×g for 5 min. Precipitated protein was dissolved in sodium dodecyl sulfate (SDS) sample buffer prior to resolution in a polyacrylamide gel. For immunoprecipitation experiments, cells were lysed using glass beads in 2X HC lysis buffer (300 mM HEPES buffer pH 7.6, 100 mM KCl, 2 mM EDTA, 0.2% NP-40, and 0.2 mM DTT) containing protease inhibitor cocktail (11697498001, Roche) and 2 mM PMSF. Lysate cleared of cellular debris was incubated with antibody-conjugated beads for immunoprecipitation. […]

| Molecule | interaction with Erh1 (GST pull-down) (Erh1) | ΔH (binding enthalpy) (Erh1 E85A) [kJ per mol] | binding affinity (in words) (Erh1 R23A; Erh1 Arg23 substituted with alanine) | ΔH (binding enthalpy) (Erh1 R23A; Erh1 R23A, 293 K, pH 7.5) [kJ per mol] | solubility of synthesized peptide [1] | binding affinity (in words) (Erh1 D27A; Erh1 Asp27 substituted with alanine) | ΔH (binding enthalpy) (Erh1 D27A; Erh1 D27A, 293 K, pH 7.5) [kJ per mol] | ΔH (binding enthalpy) (Erh1 (Erh1wt)) [kJ per mol] | ΔH (binding enthalpy) (Erh1 (Erh1wt); listed as Mmi195-11 2) [kJ per mol] | ΔH (binding enthalpy) (Erh1 D68A; Erh1 D68A, 293 K, pH 7.5) [kJ per mol] | affinity (in words) (Erh1 D68A; Erh1^D68A mutant) | Erh1-Mmi1 interaction (co-immunoprecipitation) (Erh1-Mmi1 interaction) |
| --- | --- | --- | --- | --- | --- | --- | --- | --- | --- | --- | --- | --- |
| Mmi1^95–122: Mmi1 fragment, residues 95–122, Erh1-interacting domain (EID) ({SUMO}-GKYDFSRHCTDYGHSYEWPYFRSLRRES; not fully specified) | sufficient for interaction | -81.9±1.70 | significantly reduced the binding affinity | -24.2±4.87 | could not be dissolved in the interaction buffer | significantly reduced the binding affinity | -58.8±1.58 | −106±3.02 | -106±3.02 | -47.6±1.30 | reduced | – |
| B1 | – | – | – | – | – | – | – | – | – | – | – | drastically diminished the Erh1-Mmi1 interaction |
